Consider four substances from article PMC10372118.

Holding throughout (assay): BLI
On the technique in general: In BLI a coated tip is dipped into the sample, and binding shifts an interference pattern.

The target in assay [1] is human ACE2 polymorphism E35K (rs1348114695) (human) (UniProt Q9BYF1).
Assay [2] addresses truncated human ACE2 (residues 19-613 with a C-terminal AviTag and 6xHis-tag), biotinylated (human) (UniProt Q9BYF1).
Assay [3] concerns the target human ACE2 polymorphism S19P (rs73635825) (human) (UniProt Q9BYF1).
The target in assay [4] is human ACE2 polymorphism K26R (rs4646116) (human) (UniProt Q9BYF1).

For “SARS-CoV-2 RBD of Delta (B.1.617.2) (from UniProt P0DTC2) (domain or fragment)”, the Kd (as a rule, the concentration at which binding is half-saturated) in assay [1] was 43.3 nM. Also, in assay [2], the t1/2 turned out to be 2.4 min.

For “SARS-CoV-2 ancestral receptor-binding domain (RBD), recombinant (from UniProt P0DTC2) (domain or fragment)”, the Kd in assay [3] amounted to 14.4 nM.

In turn, “SARS-CoV-2 RBD of Beta (B.1.351) (from UniProt P0DTC2) (domain or fragment)” had a t1/2 in assay [2] of 165.

As for “SARS-CoV-2 Omicron BA.2 RBD (from UniProt P0DTC2) (domain or fragment)”, the Kd in assay [4] stood at 5.18 nM; in assay [3] it was 4.97 nM. The substance also yielded a t1/2 in assay [2] of 2.7 min.
